Laboratory results reported in patent US20240391950A1, “PEPTIDE CROSSLINKING AGENT AND CROSSLINKED PEPTIDE WHICH IS CROSSLINKED USING SAID CROSSLINKING AGENT” (Kagoshima University, priority 2020, published 2024).
Each block holds one molecule with its values, some of them ahead of it. Starred links: 1 amine or outer side, 2 acyl side, 3 side chain; linkers in the order of their positions; H or OH if unused. Positions of bridges follow the written chain, without caps; N, C: chain ends. Residues, ends and D or L forms follow the SMILES beside them. CH2COCH2 = O=C(C[*:1])C[*:2]

How the values were obtained:
IgG = details: Patent Literature 2; read-out: Kd (affinity with IgG); cited from earlier work
human IgG1 = human IgG1 (Homo sapiens, UniProt P01857); test: SPR (BIAcore T200) measurement of binding affinity of crosslinked cyclic peptide to immobilized IgG
Chain of human IgG1 (P01857 1-328 limits assumed): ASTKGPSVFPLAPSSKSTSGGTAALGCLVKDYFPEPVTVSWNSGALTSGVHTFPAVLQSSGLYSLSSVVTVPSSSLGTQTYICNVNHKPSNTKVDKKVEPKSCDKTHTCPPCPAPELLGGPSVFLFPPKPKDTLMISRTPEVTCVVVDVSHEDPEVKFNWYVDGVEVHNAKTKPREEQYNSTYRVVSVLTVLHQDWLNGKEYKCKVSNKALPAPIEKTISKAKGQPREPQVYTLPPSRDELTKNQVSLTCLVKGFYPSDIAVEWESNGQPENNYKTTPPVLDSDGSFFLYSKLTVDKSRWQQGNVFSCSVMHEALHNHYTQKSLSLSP
Protocol: The affinity analysis was performed by the following method. First, a CM5 sensor chip was installed on BIAcoreT200 (GE healthcare), and 0.4 M 1-ethyl-3-(3-dimethylaminopropyl)carbodiimide (EDC) and a 0.1 M sulfo-N-hydroxysuccinimide (sulfo-NHS) solution mixed in equivalent amounts were injected to the sensor chip at a flow rate of […], to thereby activate the sensor chip. Thereafter, IgG was immobilized onto the sensor chip under a condition of a pH of 5.5 (10 mM Na acetate). An HBS-EP buffer (10 mM HEPES, 150 mM NaCl, 0.005% Tween 20, 3 mM EDTA, pH 7.4) was used in measurement, and 15.625, 31.2, 62.5, 125, 250, and 500 nM of peptides were each injected at a flow rate of […] for 180 seconds, to thereby monitor binding reaction. When dissociation reaction was measured, only the buffer was injected for 600 seconds. The interaction parameter was analyzed with BIAevaluation T100 software.
IgG-binding peptide derivatives compared and evaluated are illustrated in FIG. 1.

human serum-derived IgG = test: Dynamic binding capacity (DBC) measurement and alkali resistance evaluation of peptide-immobilized column; details: initial value; 1 mg peptide on 1-mL column, 1 mL/min
Protocol: Five mL of 1 mM hydrochloric acid was sent to an NHS-activated prepacked column having a volume of 1 mL, and an isopropanol solution in the column was removed. Next, a 10.0 mg/mL peptide solution (dissolved in 100 μL of DMSO) was diluted with a coupling solution (20 mM carbonate buffer, 50 mM sodium chloride, pH 8.3) by 10-fold, 1 mL of the dilution liquid was sent, and immobilization was performed at room temperature for 4 hours. Thereafter, unreacted NHS was blocked by 5 mL of 1 M Tris (pH 8.0) at room temperature for 1 hour. Thereafter, washing with 5 mL of an aqueous 0.1 N NaOH solution was made. Finally, 10 mL of a PBS solution (20 mM phosphate buffer, 150 mM sodium chloride, pH 7.4) was sent, and used in chromatography evaluation.
A column where the amount of immobilization of a peptide was 1 mg was produced by the same method as described above. The column produced was equilibrated with PBS, and 1 mg/mL human serum-derived IgG (manufactured by Sigma-Aldrich Co. LLC) dissolved in PBS was sent at a flow rate of 1 mL/min (retention time 1 min). DBC was indicated as one determined from the amount of a protein added at the time of point where 10% of the absorbance at 280 nm of the sample added was leaked.
Next, 5 mL of an aqueous 0.1 N sodium hydroxide solution was sent to the 1-mL column where 1 mg of the peptide was immobilized. Thereafter, washing with PBS was performed. This cycle was repeated 30 times for the 1,1-dichloroacetone-crosslinked cyclic peptide, and was repeated 10 times for the 1,1-dichloropinacolin-crosslinked cyclic peptide. DBC measurement was performed at a flow rate of 1 mL/min at the 1st to 5th and 10th times of the cycles, and further performed at the 20th and 30th times of the cycles with respect to the 1,1-dichloroacetone-crosslinked cyclic peptide, and thus alkali resistance was evaluated. The variation in DBC was determined based on the measurement results under the assumption that DBC immediately after column production was 100% according to Table 2.
Five mL of a 0.1 M sodium hydroxide solution was sent to the produced 1-mL column where the amount of immobilization of a peptide was 1 mg, and thereafter washing with 5 mL of PBS was performed. These operations were defined as one cycle and treatment of washing with aqueous NaOH solution/washing with PBS was performed 1 to 30 times, and thereafter DBC measurement was performed at a flow rate of 1 mL/min at the intended number of times (1, 2, 3, 4, 5, 10, 20, 30 times).

[1] = biological target: human serum-derived IgG (manufactured by Sigma-Aldrich Co. LLC); test: 1 mL column with 1 mg peptide immobilised, human serum IgG, 10% breakthrough; 2 washes with 0.1 N NaOH
[2] = biological target: human serum-derived IgG (manufactured by Sigma-Aldrich Co. LLC); test: 1 mL column with 1 mg peptide immobilised, human serum IgG 1 mg/mL at 1 mL/min; 2 washes with 0.1 N NaOH
[3] = biological target: human serum-derived IgG (manufactured by Sigma-Aldrich Co. LLC); test: peptide-immobilised column, human serum IgG, 10% breakthrough
[4] = biological target: human serum-derived IgG (manufactured by Sigma-Aldrich Co. LLC); test: 1 mL column with 1 mg peptide immobilised, human serum IgG; 5 washes with 0.1 N NaOH
[5] = biological target: human serum-derived IgG (manufactured by Sigma-Aldrich Co. LLC); test: 1 mL column with 1 mg peptide immobilised, human serum IgG, 10% breakthrough; 10 washes with 0.1 N NaOH
human IgG1 (human) [6] = test: SPR, BIAcore T200, IgG immobilised on CM5 chip
[7] = biological target: human serum-derived IgG (manufactured by Sigma-Aldrich Co. LLC); test: 1 mL column with 1 mg peptide immobilised, human serum IgG; 1 wash with 0.1 N NaOH
[8] = biological target: human serum-derived IgG (manufactured by Sigma-Aldrich Co. LLC); test: 1 mL column with 1 mg peptide immobilised, human serum IgG, 10% breakthrough; 1 wash with 0.1 N NaOH
[9] = biological target: human serum-derived IgG (manufactured by Sigma-Aldrich Co. LLC); test: 1 mL column with 1 mg peptide immobilised, human serum IgG 1 mg/mL at 1 mL/min; 10 washes with 0.1 N NaOH
[10] = biological target: human serum-derived IgG (manufactured by Sigma-Aldrich Co. LLC); test: 1 mL column with 1 mg peptide immobilised, human serum IgG, 10% breakthrough; 5 washes with 0.1 N NaOH
[11] = biological target: human serum-derived IgG (manufactured by Sigma-Aldrich Co. LLC); test: 1 mL column with 1 mg peptide immobilised, human serum IgG; 10 washes with 0.1 N NaOH
human IgG1 (human) [12] = test: SPR, BIAcore T200, IgG immobilised on CM5 chip, peptide as analyte
[13] = biological target: human serum-derived IgG (manufactured by Sigma-Aldrich Co. LLC); test: 1 mL column with 1 mg peptide immobilised, human serum IgG 1 mg/mL at 1 mL/min; 1 wash with 0.1 N NaOH
[14] = biological target: human serum-derived IgG (manufactured by Sigma-Aldrich Co. LLC); test: 1 mL column with 1 mg peptide immobilised, human serum IgG; 2 washes with 0.1 N NaOH
[15] = biological target: human serum-derived IgG (manufactured by Sigma-Aldrich Co. LLC); test: 1 mL column with 1 mg peptide immobilised, human serum IgG 1 mg/mL at 1 mL/min; 5 washes with 0.1 N NaOH

- reduction of affinity as compared with the original peptide (human IgG1; Kd relative to original disulfide IgG-binding peptide): about 500 fold
- kd (human IgG1; SPR, IgG immobilized on CM5 chip, HBS-EP pH 7.4): 0.005
- ka (human IgG1; SPR, IgG immobilized on CM5 chip, HBS-EP pH 7.4, in M-1 s-1 (unit assumed)): 1.00E+03
- initial value of DBC of peptide column (human serum-derived IgG): 2.3 mg/mL-column
Molecule: CC(C)C[C@@H]1NC(=O)[C@H](CCC(=O)O)NC(=O)CNC(=O)[C@H](CCCNC(=N)N)NC(=O)[C@H](Cc2c[nH]cn2)NC(=O)[C@H](Cc2ccc(O)cc2)NC(=O)[C@H](C)NC(=O)[C@@H](NC(=O)[C@H](CC(=O)O)NC(=O)[C@@H]2CCCN2C(=O)CNC(=O)[C@H](CO)NC(=O)CNC(=O)CNC(=O)[C@H](CO)NC(=O)CN)CSCC(=O)CSC[C@@H](C(=O)N[C@H](C(=O)N[C@@H](Cc2ccccc2)C(=O)N[C@@H](Cc2c[nH]cn2)C(=O)O)[C@@H](C)O)NC(=O)[C@H](Cc2c[nH]c3ccccc23)NC(=O)[C@H](C(C)C)NC1=O [IgG-BP-LongGS 1,3-dichloroacetone] (H-GSGGSGPDCAYHRGELVWCTFH-OH; linker 9-19 via CH2COCH2; N-terminus and C-terminus assumed)
- Kd (IgG): 4900 nM

- Dynamic binding capacity [1]: 17.2 mg/mL
- Variation (%) in dynamic binding capacity [1]: 103%
- Maximum binding capacity [2]: 12.1 mg
- DBC relative to the original IgG-binding peptide-immobilized column [3]: 96%
- Variation (%) in maximum binding capacity [4]: 89.8%
- Dynamic binding capacity [5]: 14.5 mg/mL
- Variation (%) in dynamic binding capacity [5]: 86.6%
- fold reduction of affinity against the original peptide (human IgG1 (human) [6]): 14 fold
- Variation (%) in maximum binding capacity [7]: 100%
- Dynamic binding capacity [8]: 16.7 mg/mL
- Variation (%) in dynamic binding capacity [8]: 100%
- Maximum binding capacity [9]: 10.6 mg
- Dynamic binding capacity [10]: 16.2 mg/mL
- Variation (%) in dynamic binding capacity [10]: 97.2%
- Variation (%) in maximum binding capacity [11]: 87.1%
- Kd (human IgG1 (human) [12]): 112 nM
- Maximum binding capacity [13]: 12.1 mg
- Variation (%) in maximum binding capacity [14]: 99.8%
- Maximum binding capacity [15]: 10.9 mg
B1: 1,1-dichloropinacolin-crosslinked cyclic peptide of IgG-BP-LongGS (peptide)
peptide: GSGGSGPDCAYHRGELVWCTFH
modifications: the thiol groups of the two Cys residues crosslinked with 1,1-dichloropinacolin in place of the disulfide bond; Fmoc removed
